Test results published in patent publication US20170296629A1, “INHIBITOR OF EXTRACELLULAR TRAP FORMATION IN LEUKOCYTE” (KEIO UNIVERSITY, priority 2014, published 2017).

System: Healthy Individual's Peripheral Blood Neutrophil
Test: Inhibition of NET formation in neutrophils pretreated with lactoferrin-derived peptide fragment; DNA concentration in culture supernatant (Picogreen)
Format: cell-based
Conditions: human neutrophils, pretreatment at room temperature for 30 minutes
Procedure: Effect of Inhibiting NET Formation Stimulation of Healthy Individual's Peripheral Blood Neutrophil by Pretreatment with Lactoferrin-derived Peptide Fragment
For each round of experiment, 15 ml to 20 ml of peripheral blood was collected from a healthy individual by using an EDTA-containing syringe (with a needle of 18 to 22 G). After collecting the blood, in a 15 ml conical tube charged with 3 ml of Mono-Poly Resolving Medium (Cat No. DSBN100, DS Pharma Biochemical Co., Ltd.), 3.5 ml of the whole blood was gently layered over a lower layer of Mono-Poly Resolving Medium. The resultant 15 ml conical tube was centrifuged with a swing centrifuge at room temperature (15 to 30° C.) at 400×g for 20 minutes, and the conical tube was then gently taken out. An uppermost brown plasma layer and a lymphocyte/monocyte layer thereunder were removed with an aspirator or the like. In addition, a transparent layer under the lymphocyte/monocyte layer was removed as much as possible. […]
A culture supernatant was collected, centrifuged at 200×g for 10 minutes, and the thus obtained supernatant was transferred to a fresh microcentrifuge tube. The amount of DNA was measured by using Picogreen dsDNA assay reagent (P11496 Invitrogen) in accordance with the accompanying protocol.

B1: human lactoferrin: Human lactoferrin protein, Genbank NP_001186078.1 (protein, listed as Homo sapiens)
chain: MRKVRGPPVSCIKRDSPIQCIQAIAENRADAVTLDGGFIYEAGLAPYKLRPVAAEVYGTERQPRTHYYAVAVVKKGGSFQLNELQGLKSCHTGLRRTAGWNVPIGTLRPFLNWTGPPEPIEAAVARFFSASCVPGADKGQFPNLCRLCAGTGENKCAFSSQEPYFSYSGAFKCLRDGAGDVAFIRESTVFEDLSDEAERDEYELLCPDNTRKPVDKFKDCHLARVPSHAVVARSVNGKEDAIWNLLRQAQEKFGKDKSPKFQLFGSPSGQKDLLFKDSAIGFSRVPPRIDSGLYLGSGYFTAIQNLRKSEEEVAARRARVVWCAVGEQELRKCNQWSGLSEGSVTCSSASTTEDCIALVLKGEADAMSLDGGYVYTAGKCGLVPVLAENYKSQQSSDPDPNCVDRPVEGYLAVAVVRRSDTSLTWNSVKGKKSCHTAVDRTAGWNIPMGLLFNQTGSCKFDEYFSQSCAPGSDPRSNLCALCIGDEQGENKCVPNSNERYYGYTGAFRCLAENAGDVAFVKDVTVLQNTDGNNNEAWAKDLKLADFALLCLDGKRKPVTEARSCHLAMAPNHAVVSRMDKVERLKQVLLHQQAKFGRNGSDCPDKFCLFQSETKNLLFNDNTECLARLHGKTTYEKYLGPQYVAGITNLKKCSTSPLLEACEFLRK
- DNA concentration in the culture supernatant (release of the DNA due to the NET): reduced in a concentration-dependent manner
